Test results from patent publication US20170101472A1 (Regeneron, published 2017).

T1: recombinant human LAG3 expressed with a C-terminal mouse IgG2a mFc tag (human)
T1 construct: Called dimeric; also called hLAG3-mFc; hLAG3 dimer
T1 chain: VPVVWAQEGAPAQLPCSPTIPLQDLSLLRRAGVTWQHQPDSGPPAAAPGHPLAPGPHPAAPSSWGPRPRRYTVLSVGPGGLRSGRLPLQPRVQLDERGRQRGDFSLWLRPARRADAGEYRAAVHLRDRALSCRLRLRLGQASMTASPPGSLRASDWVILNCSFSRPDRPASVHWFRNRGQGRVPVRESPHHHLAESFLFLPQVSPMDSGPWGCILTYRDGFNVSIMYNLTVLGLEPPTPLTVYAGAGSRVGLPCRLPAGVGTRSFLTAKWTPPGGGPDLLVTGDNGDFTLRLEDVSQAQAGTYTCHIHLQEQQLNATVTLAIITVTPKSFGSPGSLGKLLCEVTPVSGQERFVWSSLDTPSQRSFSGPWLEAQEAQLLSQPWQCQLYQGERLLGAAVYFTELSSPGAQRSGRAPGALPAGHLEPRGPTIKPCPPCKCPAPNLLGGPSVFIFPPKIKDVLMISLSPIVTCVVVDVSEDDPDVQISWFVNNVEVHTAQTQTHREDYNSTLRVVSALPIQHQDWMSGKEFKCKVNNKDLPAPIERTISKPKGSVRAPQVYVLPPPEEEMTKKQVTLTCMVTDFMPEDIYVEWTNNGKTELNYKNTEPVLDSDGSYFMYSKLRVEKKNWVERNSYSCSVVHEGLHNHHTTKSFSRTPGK


What was measured:
[1] = molecular target: T2, recombinant human LAG3 expressed with a C-terminal myc-myc-hexahistidine tag (human, UniProt P18627 29-450); assay: SPR, mAb captured, 25 C
T2 construct: also called hLAG3-mmh; hLAG3.mmh
Protocol: (§1) The BiaCore sensor surface was derivatized with either a polyclonal rabbit anti-mouse antibody (GE, # BR-1008-38) or with a monoclonal mouse anti-human Fc antibody (GE, # BR-1008-39) to capture approximately 50-85 RUs of anti-LAG3 monoclonal antibodies, expressed with either a mouse Fc or a human Fc, respectively. […] The binding of the LAG3 reagents to captured monoclonal antibodies was monitored for 4 minutes while their dissociation from the antibodies was monitored for 8 minutes in HBST running buffer (0.01 M HEPES pH 7.4, 0.15 M NaCl, 3 mM EDTA, 0.05% v/v Surfactant P20). Experiments were performed at 25° C. and 37° C. Kinetic association (kₐ) and dissociation (kd) rate constants were determined by processing and fitting the data to a 1:1 binding model using Scrubber 2.0c curve fitting software. Binding dissociation equilibrium constants (KD) and dissociative half-lives (t_{1/2}) were then calculated from the kinetic rate constants as: KD (M)=kd/kₐ and t_{1/2} (min)=[ln2/(60*kd)].

[2] = molecular target: T1, recombinant human LAG3 expressed with a …; assay: SPR, mAb captured, 25 C
Protocol: as §1

Binder | Kd [1] | koff [1] | kon [1] | t1/2 [1] | Kd [2] | koff [2] | kon [2] | t1/2 [2]
H4sH14813N (antibody, human IgG4 S228P, kappa, V domains shown, H4sH = modified human IgG4 Fc) VH: QVQLQQWGAGLLKPSETLSLTCAVYGGSFSGYYWNWIRQPPGKGLEWVGEISHRGSTNYNPSLKSRVTISLDTSKNQFSLKLTSVTAADTAVYYCSRDEELEFRFFDYWGQGTLVTVSS VL: EIVLTQSPATLSLSPGERATLSCRASQSVSSYLAWYQQKPGQAPRLLVYGASNRATGIPARFSGSGSGTDFTLTISSLEPEDFAFYYCQQRSNWPLTFGGGTKVEIKR | 0.177 nM | 7.89e-05 s⁻¹ | 445000 M⁻¹ s⁻¹ | 146 min | 0.0106 nM | 1.9e-05 s⁻¹ | 1.8e+06 M⁻¹ s⁻¹ | 607 min
H4H14813N (antibody, human IgG4, V domains shown, H4H = human IgG4 Fc with S108P hinge mutation) VH: QVQLQQWGAGLLKPSETLSLTCAVYGGSFSGYYWNWIRQPPGKGLEWVGEISHRGSTNYNPSLKSRVTISLDTSKNQFSLKLTSVTAADTAVYYCSRDEELEFRFFDYWGQGTLVTVSS VL: EIVLTQSPATLSLSPGERATLSCRASQSVSSYLAWYQQKPGQAPRLLVYGASNRATGIPARFSGSGSGTDFTLTISSLEPEDFAFYYCQQRSNWPLTFGGGTKVEIK | 0.214 nM | 8.8e-05 s⁻¹ | 411000 M⁻¹ s⁻¹ | 131 min | ≤ 0.0104 nM | ≤ 1e-05 s⁻¹ | 958000 M⁻¹ s⁻¹ | ≥ 1160 min
H4sH15462P (antibody, V domains shown, H4sH = human IgG4 Fc with 2 or more amino acid changes as disclosed in US20140243504) VH: QVQLVQSGAEVKKPGASVKVSCKASGYTFTNYYIHWVRQAPGQGLDWMGIINPGGGNTNYAQKFLGRVTMTRDTSTTTVYMELSSLRSEDTAIYYCARENWNSYFDNWGQGTLVTVSS VL: not shown | 6.51 nM | 0.00697 s⁻¹ | 1.07e+06 M⁻¹ s⁻¹ | 1.7 min | 0.814 nM | 0.0019 s⁻¹ | 2.34e+06 M⁻¹ s⁻¹ | 6.1 min
H4H15462P (antibody, human IgG4, V domains shown, H4H = human IgG4 Fc with S108P hinge mutation) VH: QVQLVQSGAEVKKPGASVKVSCKASGYTFTNYYIHWVRQAPGQGLDWMGIINPGGGNTNYAQKFLGRVTMTRDTSTTTVYMELSSLRSEDTAIYYCARENWNSYFDNWGQGTLVTVSS VL: not shown | 5.75 nM | 0.0054 s⁻¹ | 939000 M⁻¹ s⁻¹ | 2.1 min | 1.01 nM | 0.00203 s⁻¹ | 2.02e+06 M⁻¹ s⁻¹ | 5.7 min
H4sH15482P (antibody, human IgG4 S228P, kappa, H4sH = modified human IgG4 Fc; also called mAb1) heavy: QVQLVESGGGVVQPGRSLRLSCVASGFTFSSYGMHWVRQAPGKGLEWVAIIWYDGSNKYYADSVKGRFTISRDNSKNTQYLQMNSLRAEDTAVYYCASVATSGDFDYYGMDVWGQGTTVTVSSASTKGPSVFPLAPCSRSTSESTAALGCLVKDYFPEPVTVSWNSGALTSGVHTFPAVLQSSGLYSLSSVVTVPSSSLGTKTYTCNVDHKPSNTKVDKRVESKYGPPCPPCPAPPVAGPSVFLFPPKPKDTLMISRTPEVTCVVVDVSQEDPEVQFNWYVDGVEVHNAKTKPREEQFNSTYRVVSVLTVLHQDWLNGKEYKCKVSNKGLPSSIEKTISKAKGQPREPQVYTLPPSQEEMTKNQVSLTCLVKGFYPSDIAVEWESNGQPENNYKTTPPVLDSDGSFFLYSRLTVDKSRWQEGNVFSCSVMHEALHNHYTQKSLSLSLGK light: EIVLTQSPATLSLSPGERTTLSCRASQRISTYLAWYQQKPGQAPRLLIYDASKRATGIPARFSGSGSGTGFTLTISSLEPEDFAVYYCQQRSNWPLTFGGGTKVEIKRTVAAPSVFIFPPSDEQLKSGTASVVCLLNNFYPREAKVQWKVDNALQSGNSQESVTEQDSKDSTYSLSSTLTLSKADYEKHKVYACEVTHQGLSSPVTKSFNRGEC | 1.23 nM | – | – | 44.5 min | ≤ 0.0141 nM | – | – | ≥ 1160 min
H4H15482P (antibody, human IgG4 S228P, kappa, H4H = human IgG4 Fc with S108P) heavy: not shown light: EIVLTQSPATLSLSPGERTTLSCRASQRISTYLAWYQQKPGQAPRLLIYDASKRATGIPARFSGSGSGTGFTLTISSLEPEDFAVYYCQQRSNWPLTFGGGTKVEIKRTVAAPSVFIFPPSDEQLKSGTASVVCLLNNFYPREAKVQWKVDNALQSGNSQESVTEQDSKDSTYSLSSTLTLSKADYEKHKVYACEVTHQGLSSPVTKSFNRGEC | 0.972 nM | – | – | 59.7 min | ≤ 0.0132 nM | – | – | ≥ 1160 min
H4H17823P (antibody, human IgG4, V domains shown, H4H = human IgG4 Fc with S108P hinge mutation) VH: EVQLLESGGGLVQPGGSLRLSCAASGFTFRSYAMSWVRQAPGKGLEWVSVISGGGGRTYYTDSVKGRFTISRDNSKSMLYLQMNSLRAEDTAIYYCAKERVTGIDHYYYGVDVWGQGTTVTVSS VL: DIQMTQSPSSLSASVGDRVTITCRASQSISSYLNWYQQKPGKAPKLLIYATSSLQSGVPSRFSGSASGTDFTLAISSLQPEDFATYYCQQSYTTPLTFGGGTKVEIK | 0.429 nM | 0.000447 s⁻¹ | 1.04e+06 M⁻¹ s⁻¹ | 25.8 min | 0.174 nM | 0.000218 s⁻¹ | 1.26e+06 M⁻¹ s⁻¹ | 52.9 min
H4H15483P (antibody, human IgG4, V domains shown, H4H = human IgG4 Fc with S108P hinge mutation) VH: QVQLQQWGAGLLPPSETLSLICAVYGGSFSGYYWSWIRQPPGKGLEWIGEINHRGSTNYNPSLKSRATISVDTSKNQFSLKLSSVTAADTAVYYCSRGEDYYDSSGYSYYFDYWGQGTLVTVSS VL: EIVLTQSPATLSLSPGERATLSCRASQSVSSYLAWYQQKPGQAPRLLIYDASNRATGIPARFSGSGSGTDFTLTISSLEPEDFAVYYCQQRSNWPLTFGGGTKVEIK | 1.97 nM | 0.00037 s⁻¹ | 188000 M⁻¹ s⁻¹ | 31.2 min | ≤ 0.00745 nM | ≤ 1e-05 s⁻¹ | 1.34e+06 M⁻¹ s⁻¹ | ≥ 1160 min
H4sH15479P (antibody, V domains shown) VH: QVQLQQWGAGLLNPSETLSLTCAVYGGAFSDYYWNWIRQPPGKGLEWIGEINHRGSTNYNPSLKSRVTISVDTSKNQFSLRMSSVTAADAAVYYCARGEDYDIWNGYYQEKWGQGTLVTVSS VL: EIVLTQSPATLSLSPGERATLSCRASQSISTYLAWYQQKPGQAPRLLIYDASKRATGIPARFSGSGSGTDFTLTISSLEPEDFVVYYCHQRSNWPLTFGGGTKVEIK | 0.0487 nM | 5.98e-05 s⁻¹ | 1.23e+06 M⁻¹ s⁻¹ | 193 min | ≤ 0.00328 nM | ≤ 1e-05 s⁻¹ | 3.05e+06 M⁻¹ s⁻¹ | ≥ 1160 min
